From US8933202B2, “AXL antibodies” (U3 Pharma GmbH, priority 2007, dated 2015) come the findings set out here.

Format in all cases: cell-based, human
The test system of experiment [1] is NCI/ADR-RES ovarian cancer cells. The experiment can be described thus: TUNEL staining, combination with doxorubicin. The note with it: 24 h. An excerpt: As rat anti-Axl antibodies of the invention turned out to interfere with Gas6-mediated anti-apoptosis of serum-starved NIH3T3-Axl cl.7 fibroblasts, the question arose, whether antagonistic anti-Axl antibodies would synergize with chemotherapeutic agents in inducing apoptosis, thereby contributing to overcome drug resistance. In this example, NCI/ADR-RES (originally named MCF-7/AdrR) cells—a ovarian cancer cell line (Liscovitch and Ravid, 2007, Cancer Letters, 245, 350-352) displaying a high level of resistance to several agents including doxorubicin (Fairchild et al., 1987, Cancer Research, 47, 5141-5148; Xu et al., 2002, The Journal of Pharmacology and Experimental Therapeutics, 302, 963-971)—were incubated with the antagonistic anti-Axl antibody 11B7 and/or doxorubicin, and apoptosis rates were determined by TUNEL staining. In brief, 3×10^4 NCI/ADR-RES cells in normal growth medium were seeded per well of an 8-chamber culture slide (BD Falcon, cat#354118) which were pre-incubated with the same medium for 1 h at 37° C. The next morning, normal growth medium was removed and cells were washed with and cultured in serum-reduced (0.5% FCS) medium. In the evening, isotypic control antibody 1D5 or the antagonistic anti-Axl antibody 11B7 were added at final concentrations of 10 μg/ml each. In the morning of day 3, doxorubicin at final concentrations of 100 μM, 150 μM, or 200 μM was added, and cells were incubated at 37° C. After 24 h, cells were rinsed once with PBS, fixed with 4% formaldehyde in PBS (pH 7.5) for 20 min at room temperature, air-dried for 5 min, and stored at −20° C. Using the commercially available Fluorescein-FragEL™ kit (Oncogene, cat#QIA39, presently being distributed through Merck-Calbiochem), TUNEL staining was performed according to the supplier's manual instructions (chapter ‘Fluorescein-FragEL™ of cell preparations fixed on slides’, page 10). Applying fluorescence microscopy, cells were analyzed and photos were taken.

Experiment [2] deals with NCI-H292 lung cancer cells. The experiment can be described thus: Wound healing/scratch assay. The note with it: 10 μg/ml antibody, 24 h, compared to isotypic control antibody. An excerpt: To examine the migration and proliferation rates of different cells and culture conditions, in vitro wound healing/scratch assays are being employed for many years. These assays generally involve growing a confluent cell monolayer first. A small area is then disrupted and a group of cells are being destroyed or displaced by scratching a line through the layer with, for example, a pipette tip. The open gap is then inspected microscopically over time as the cells move in and fill the damaged area (“healing”). In brief, 1.5×10^6 NCI-H292 lung cancer cells were seeded per well of a 12 well dish and cultured in normal growth medium (RPMI, 10% FCS). After 8 h, cells were rinsed with PBS and starved in low serum medium (RPMI, 0.5% FCS) over night for 24 h. Using a sterile 200 μl pipette tip, three separate uniform wounds per well were scratched through the confluent NCI-H292 cell monolayers. […] Cells were permitted to migrate into the area of clearing for 24 h, washed once with PBS and fixed with ice cold Methanol (100%) at −20° C. After cells were stained with crystal violet (0.5% in 20% Methanol), rinsed with water and dried over night, photos of the wounds were taken.

The next experiment concerns HUVEC spheroids. The experiment can be described thus: Spheroid-based cellular angiogenesis assay. The following applies: 25 ng/ml VEGF-A, 24 h. The method, then:
AXL is a key regulator of multiple angiogenic behaviors including endothelial cell migration, proliferation, and tube formation in vitro (Holland et al., Cancer Res: 65, 9294-9303, 2005). […] The experiments were pursued in modification of the originally published protocol (Korff and Augustin: J Cell Sci 112: 3249-58, 1999). In brief, spheroids were prepared as described (Korff and Augustin: J Cell Biol 143: 1341-52, 1998) by pipetting 500 human umbilical vein endothelial cells (HUVEC) in a hanging drop on plastic dishes to allow over night spheroid aggregation. 50 HUVEC spheroids were then seeded in 0.9 ml of a collagen solution (2 mg/ml) and pipetted into individual wells of a 24 well plate to allow polymerization. […] Plates were incubated at 37° C. for 24 hours and fixed by adding 4% paraformaldehyde. Sprouting intensity of HUVEC spheroids was quantified by an image analysis system that determines the cumulative sprout length per spheroid using an inverted microscope and the digital imaging software Analysis 3.2 (Soft imaging system, Munster, Germany). The mean of the cumulative sprout length of 10 randomly selected spheroids was analyzed as an individual data point.

In the next experiment the test system is C-8161 melanoma cells. The experiment can be described thus: Soft agar colony formation assay, combination with cisplatin. Here is the method:
Soft agar assays were conducted in order to investigate the ability of anti-Axl antibodies of the invention to inhibit anchorage-independent cell growth either alone or in combination with chemotherapeutic agents. The soft agar colony formation assay is a standard in vitro assay to test for transformed cells, as only transformed cells are able to grow in soft agar.
In brief, 750 C-8161 melanoma cells either remained untreated or were pre-incubated with the antagonistic rat anti-Axl antibody 11B7 at 15 μg/ml in IMDM medium (Gibco) for 30 min at 37° C. Subsequently, cells were combined with Difco noble agar solution resulting in 50 μl of top agar cell suspension at concentrations of Agar, FCS, and 11B7 of 0.35%, 0.2%, and 7.5 μg/ml, respectively. This cell suspension was plated on top of 50 μl of a 0.7% agarose bottom layer containing 20% FCS, and was finally covered with another 50 μl of a feeding layer solution that contains 0.2% FCS as well as cisplatin in according concentrations. In the whole of 150 μl per sample, the final concentrations of 11B7 and cisplatin were 2.5 μg/ml and 1.5 μM, 1.0 μM, 0.75 μM, 0.5 μM, or 0.25 μM, respectively. Colonies were allowed to form for 5 days and were then stained with 50 μl MTT (Sigma, 1 mg/ml in PBS) for 3 hours at 37° C. Using a Scanalyzer HTS camera system in conjunction with the HTS Bonit colony formation software (Lemnatec, Wuerselen), the effect of the antagonistic rat anti-Axl antibody 11B7 in the absence or presence of cisplatin were analyzed in triplicates.

B1: 11B7: antagonistic rat anti-AXL monoclonal antibody, rat IgG1 (antibody, V domains shown)
VL: DIQMTQAPSSLPASLGDRVTITCRASQDIGNYLRWFQQKPGKSPRLMISGATNLAAGVPSRFSGSRSGSDYSLTISSLESEDMADYYCLQSKESPWTFGGGTKLELK
VH: EVQLQESGPGLVKPSQSLSLTCSVTGYSITSNYWGWIRKFPGDKMEWMGYITYSGSTSYNPSLKSRISITRDTSKNQFFLQLNSVTSEDTATYYCAITTFYYWGQGVMVTVSS
As for B1, the “apoptosis (TUNEL staining), co-incubation with 100 μM doxorubicin” value in experiment [1] (10 μg/ml 11B7 + 100 μM doxorubicin) is “No TUNEL staining, and hence no apoptosis”. In addition, in experiment [1] (10 μg/ml 11B7 + 150 μM doxorubicin), the “apoptosis (TUNEL staining), co-incubation with 150 μM doxorubicin” value is “substantial induction of apoptosis”. For the same molecule, the “apoptosis (TUNEL staining), co-incubation with 200 μM doxorubicin” value in experiment [1] (10 μg/ml 11B7 + 200 μM doxorubicin, compared to control IgG antibody) is “significantly increased apoptosis rates”. Further, in experiment [2], the “re-population of the cleared area (wound closure)” value is on record as “reduced the re-population of the cleared area”. In addition, in the experiment with HUVEC spheroids, the “HUVEC sprouting at the highest antibody concentration” value is “reduced HUVEC sprouting to basal levels”. For the same molecule, the “soft agar colony growth, combination with cisplatin” value with C-8161 melanoma cells (2.5 μg/ml 11B7 + 0.25 to 1.5 μM cisplatin, 5 days) was “significantly potentiated inhibitory effect of cisplatin”. The “inhibitory effect on soft agar colony growth, antibody alone” value in the experiment on C-8161 melanoma cells (2.5 μg/ml 11B7, 5 days, overall area of colonies) is about 30%.
